# Measurements reported in the supplement of paper PMC12042874.
# ± gives the uncertainty stated by the source.
# Assay: amyloid nucleation score (Sup35N fusion, yeast selection) (log enrichment); library NNK3; higher = more nucleation; inactive = no reads after selection
# In short: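 The nucleation score is the DiMSum log enrichment of output over input reads, centred on the mode score of non-aggregating sequences. Only sequences with 100 or more input reads were scored, using Illumina sequencing of input and output plasmid inserts. Psi-negative yeast expressing Sup35N fused to peptides of 20 random codons were induced 24 hours with 100 μM copper sulfate and grown 7 days at 30°C on medium lacking adenine and uracil.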
row,Substance,amyloid nucleation score
1,SRELNYVVAWIL,inactive
2,SRFDRVMQNDCCVYSCHIII,inactive
3,SRFVYSSGY,inactive
4,SRIAFKVDFASCRARMCGVE,inactive
5,SRIGFPICLRRGYVNQDCNG,inactive
6,SRIIVRN,inactive
7,SRILGNRMAFTA,inactive
8,SRISKMSELIYRLRYIVILV,inactive
9,SRLMRKRISA,inactive
10,SRMSGVVGIAKV,inactive
11,SRPFICSPFQIWAFKFTPMN,inactive
12,SRRVNFLPVVFQHMTWLVLV,inactive
13,SRSFKRNLVSMVNLGVRDEM,inactive
14,SRSLLEAWDHGTHAGLHVWS,inactive
15,SRTFVRECKWGFVCRYKVWV,inactive
16,SRVISLFSGVCRGLRGYVNR,inactive
17,SRWEKSFALICAS,inactive
18,SRYRAEIDARYNFLRGFNAC,-0.449 ± 0.8
19,SSALRMYVCSAWG,inactive
20,SSANVDMPVDCDTRWTCW,inactive
21,SSAPEQRF,inactive
22,SSARRKNLRYEGVLRTEARV,inactive
23,SSDECYSNHCIWCVKQ,3.16 ± 0.061
24,SSERSGRRRNWSVRSCLVGQ,inactive

row,Substance,amyloid nucleation score
1,SSGAQQCILISSLVLNEDWL,-0.46 ± 0.76
2,SSGHAGGYINYSCTFSAYRM,0.786 ± 0.19
3,SSGSFS,inactive
4,SSHGSRGITVDT,inactive
5,SSHVQRMMRLMVAN,inactive
6,SSIVENGCNTERSPMIGCVS,-0.576 ± 0.88
7,SSLFLDCGFGV,inactive
8,SSLIGRVDRIMYVSARERTI,inactive
9,SSLNSMIIIRFHTSKGHVCK,1.32 ± 0.17
10,SSLSTNARVDLSMRR,inactive
11,SSMCVLCWTIVSVRNEAVEG,1.9 ± 0.098
12,SSNFVFNLPSTWWSYYMTWV,-0.216 ± 0.75
13,SSNILFVIFIAY,1.08 ± 0.21
14,SSRSRTRWASNFLAHAYGRF,inactive
15,SSRTTIQ,inactive
16,SSSSNANGFNRHYLSVRFGE,inactive
17,SSSVKEMQQPVTTTLETQST,inactive
18,SSVRMRISFMINGRQTA,0.833 ± 0.15
19,SSVWIFRWTICNWESKF,2.45 ± 0.052
20,SSWMYGFCVSKSSWPRL,-0.272 ± 1.4
21,STDLVIFMSTLPVCSCYCGQ,1.72 ± 0.08
22,STFGVVMTSSSD,inactive
23,STFMYVCWRPTYGSYYQTVR,inactive
24,STGFGE,inactive

row,Substance,amyloid nucleation score
1,STHKFNRNFIMSFAWLFICW,inactive
2,STIFTVAVFDCNEHLARSKS,inactive
3,STIVGGSLCFPIASVTFNSC,2.2 ± 0.079
4,STLASSS,inactive
5,STLFSPR,0.922 ± 0.14
6,STMLSYAVWALDMVFSYKVY,-0.509 ± 0.84
7,STNWSILFQDHSTTFFLMCA,0.279 ± 0.2
8,STSNFYLWGKPNVLAGMR,inactive
9,STTFDLARWASVKSVHFCYF,inactive
10,STTHEYDI,inactive
11,STWLSNWYY,-0.759 ± 1.1
12,STYLF,inactive
13,SVEGQHYKLAVTFVDLYNSI,inactive
14,SVFFPVEFTFRVGETLCCFF,3.01 ± 0.062
15,SVGLDRTSQEHSAYVGNVHS,inactive
16,SVGRSST,inactive
17,SVHRLFISCKVWGFKVLWPV,inactive
18,SVIILSCND,inactive
19,SVIRVMSFG,inactive
20,SVIRWFVTLWLGEHLRASDT,inactive
21,SVIYVLYKVW,inactive
22,SVLFMRRLYSRMA,inactive
23,SVLGRHYVYLLSIVCGVIFG,inactive
24,SVLMA,inactive

row,Substance,amyloid nucleation score
1,SVMHKSRSRGFNRNDGSVRV,inactive
2,SVRTLLVTHFLRKPLALI,inactive
3,SVRWMTGRFVGCRRNQVQFR,0.505 ± 0.38
4,SVSFVDSRLLYVKICLSALG,inactive
5,SVSLYLNLVSLVYCLVCP,1.26 ± 0.14
6,SVVLIMKICTVEGYDPQLLF,inactive
7,SVYLGFIVGSVHPTHVISMR,inactive
8,SVYPYESYLVW,inactive
9,SVYVNAYEHNKGGFTRNIHI,inactive
10,SWAYL,inactive
11,SWDYSKRNCSVEKVWTELNF,inactive
12,SWEFPTDKSYMSCREPENPM,inactive
13,SWFALSLIIKTRVWT,inactive
14,SWGMLSY,inactive
15,SWIVLYRMDS,inactive
16,SWIVNKVF,inactive
17,SWLFVDLYSFHFCFSNYVSY,inactive
18,SWLKVCRQGYGDSSIRYRLL,inactive
19,SWNRYTLRLSPSGFLVKVSL,inactive
20,SWSARVKVLLVVGCNVSVFC,0.842 ± 0.2
21,SWTSEGDWHYFGYIEVVWHY,inactive
22,SWWFCVWFQNI,0.888 ± 0.13
23,SWYRVNYTLPC,inactive
24,SWYSMGNP,1.04 ± 0.14

row,Substance,amyloid nucleation score
1,SWYVAFFNNSGFSCMGVFVG,inactive
2,SYCGSSASSASTLEIRYTLA,0.875 ± 0.12
3,SYCLYKLQLLWHDNHGFGYN,inactive
4,SYCTYCRKAVGCHVHDEVGG,inactive
5,SYDVKSSTLW,inactive
6,SYEGMTREPLYMVYMRGSTD,1.16 ± 0.16
7,SYFVALMSLRYMESTYWR,inactive
8,SYFVLVWRETDFKHCLKGNF,inactive
9,SYGSLM,0.198 ± 0.27
10,SYISQEFYDFCFKPYLGSLY,inactive
11,SYLIGIWGFWINGIVFAVCA,inactive
12,SYLNVLPNFLRLTAICVVFR,inactive
13,SYLYVTKYVLFDR,inactive
14,SYMITLLKVIILSWHTYAVM,inactive
15,SYMLWYSS,inactive
16,SYMQMTELKEAP,inactive
17,SYNRAA,inactive
18,SYNSVRW,inactive
19,SYRKEYYKLGHYSRRMQATS,inactive
20,SYTFVCRPTFYVCFCGSMCF,2.45 ± 0.065
21,SYYISMVYTVMSMNASFSRS,inactive
22,SYYLITDS,inactive
23,TAESEMNQCVLSRYFSSAIR,inactive
24,TAESTDCG,inactive

row,Substance,amyloid nucleation score
1,TAFTMGV,inactive
2,TAGNWWNVCVNTFNRWRRLL,inactive
3,TAKGVKSDLECGCNVFRTEC,0.457 ± 0.15
4,TANCLVCVTCSGLMRTT,2.82 ± 0.054
5,TATWSFNVT,inactive
6,TAYSLMSIVFGWQPPKCGYE,0.648 ± 0.2
7,TCCNQRFGVRWNIYYGSDVW,0.742 ± 0.15
8,TCDIRCCTASPLYNRVM,0.129 ± 0.47
9,TCEWLSNYFKDLFIMVLSIS,inactive
10,TCLLIYFMFHGEVMPLWSI,inactive
11,TCLLMSPVFMVYFLLKTMNS,inactive
12,TCLRG,inactive
13,TCSKVFQYG,inactive
14,TCTCKVRLYCTMARSPFIMG,inactive
15,TCTSQMLVWYFFPFLINMSW,inactive
16,TCVIKGGCCGLN,-0.955 ± 2.5
17,TDCELGLLRL,inactive
18,TDETSGRSLGVVWEHHAMNH,inactive
19,TDRVCTPSVSDILVRWNNSQ,inactive
20,TDSNYNFNC,0.214 ± 0.34
21,TDVSHGNLHGVSSWSGVPAD,inactive
22,TDYMLVWSQYRLIHFCNLVV,inactive
23,TEGRVQMWRINALRECTGSS,inactive
24,TFCLFRS,-0.343 ± 0.63

row,Substance,amyloid nucleation score
1,TFGWINVAYSYSFSICGCTG,2.62 ± 0.051
2,TFKHTFNNVHCSGAFTGSQL,0.161 ± 0.25
3,TFKMQWECVIA,0.657 ± 0.16
4,TFLNSNFFPIWLVVCASA,inactive
5,TFRLKGALRKVVW,inactive
6,TFRWFDGIKTLMMD,inactive
7,TFSGVCIVIAYCGVFNILEG,1.94 ± 0.097
8,TFVKSLVGGFTRNLVFLAIL,inactive
9,TFWLH,0.156 ± 0.88
10,TFWYLFCDDDS,inactive
11,TFYSSML,inactive
12,TGFLSIHLSWTYTCYMIVER,inactive
13,TGGWTNNEQHFENSGMEVGT,inactive
14,TGHMTDIYYELSHGVEPKGL,inactive
15,TGIGSLCVLRLTYFIRVSIA,inactive
16,TGYAFFHEAS,inactive
17,THFYWADAVVMPAYRVIRRF,inactive
18,THGVR,inactive
19,THIGFFFNCIL,2.56 ± 0.082
